Test results as given in patent US10450355B2, “Lectins and uses thereof” (THE REGENTS OF THE UNIVERSITY OF MICHIGAN, priority 2014, dated 2019).
Numbering of substitutions follows the chain as printed. Numbers in names are those of the source.

Columns and labels:
[1] = biological target: T1, BanLec, recombinant wild type (rBanLec, codon-optimized cDNA from gi71042661, C-terminal 6×His tag) (Musa acuminata, UniProt O22321); assay: Isothermal titration calorimetry, binding constants of lectin for sugar; design: species or system banana; details: WT BanLec, ITC, 25° C., PBS, stoichiometry fixed at 1
T1 sequence (O22321 1-141): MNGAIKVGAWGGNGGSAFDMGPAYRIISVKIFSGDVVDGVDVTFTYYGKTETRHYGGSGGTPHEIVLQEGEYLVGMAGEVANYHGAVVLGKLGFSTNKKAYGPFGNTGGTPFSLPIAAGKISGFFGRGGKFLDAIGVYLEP

[2] = biological target: BanLec variant H84T (recombinant, 6×His tag) (Musa acuminata, UniProt O22321, H84T); assay: biochemical; type: binding, banana
[3] = biological target: BanLec variant H84T (recombinant, 6×His tag); assay: biochemical; type: binding, banana; details: for Fold Change (Ka, WT vs H84T): WT compared with H84T
[4] = biological target: T2, BanLec, natural (banana-derived) (Musa acuminata, UniProt O22321); assay: Isothermal titration calorimetry, natural BanLec compared with rBanLec; type: binding; details: ITC
T2 sequence (O22321 1-141): T1 sequence (O22321 1-141)

[5] = system: the lectins (BanLec WT and H84T mutant); assay: Isothermal titration calorimetry, general statement for the lectins; design: species or system banana; details: ITC, 25° C., PBS; relatively low binding constants
Protocol: Isothermal Titration Calorimetry
Binding constants of the lectins for methyl-α-D-mannopyranoside were determined by isothermal titration calorimetry using a MicroCal VP-ITC calorimeter (Micro-Cal, Northampton, Mass., USA) at 25° C. Data were analyzed using Origins Ver. 7 software supplied with the instrument. The lectin in PBS, generally at approx. 0.2 mM, was titrated with the ligand at 20 mM in the same buffer. The titration volumes were adjusted so that the titration proceeded to at least a 10-fold molar excess of ligand over lectin monomers. The relatively low binding constants (Ka<1000 M^−1) precluded obtaining full saturation or a definite sigmoidal titration curve from which a definitive stoichiometry can be calculated; thus, the stoichiometry was fixed at 1 for curve-fitting to determine Ka; values between about 0.5 and 2-3 had little effect on the Ka-value obtained.

[6] = system: peripheral blood lymphocytes (PBL); assay: Mitogenic activity by BrdU incorporation; type: cell-based; details: for stimulation index (mitogenic activity): PBL, three days with lectin, BrdU, less than ten considered non-mitogenic; for mitogenicity, in words: relative to WT BanLec
HIV-1 pseudo-typed virus = type: cell-based; details: for anti-HIV activity, in words: relative to WT BanLec
[7] = system: formaldehyde-treated rabbit erythrocytes; assay: Haemagglutination assay; type: cell-based; details: rabbit red blood cells
[8] = system: PBMCs from healthy donors; assay: Bio-Plex cytokine assay; type: cell-based, human; details: PBMC from multiple donors, 72 h
[9] = Aggregation in solution during NMR studies; type: physicochemical; details: NMR samples
[10] = system: 1918 H1N1 pandemic influenza strain; type: cell-based, influenza A virus
[11] = system: H5N1 avian influenza strain; type: cell-based, influenza A virus
HIV-1 JR-CSF = type: in vivo, BLT humanized mice; details: 75 μg vaginally ten minutes before vaginal HIV-1 JR-CSF challenge; six weeks; p=0.0359 vs PBS
[12] = system: CD4+ peripheral blood mononuclear cells (PBMC); assay: Flow cytometry of activation marker CD69; type: cell-based

OC[C@H]1O[C@@H](O[C@H]2[C@H](O)[C@H](O)C(O)O[C@@H]2CO)[C@@H](O)[C@@H](O)[C@@H]1O (some centres unmarked) [mannobiose]
Ka [1]: 300 mM⁻¹ | Ka ([2]; H84T BanLec, ITC, 25° C., PBS, stoichiometry fixed at 1): 227 mM⁻¹ | KD-values, rBanLec vs H84T [3]: similar | Fold Change (Ka, WT vs H84T) [3]: 1.32

CO[C@H]1O[C@H](CO)[C@@H](O)[C@H](O)[C@@H]1O [methyl-α-mannoside, Methyl α-d-mannopyranoside]
affinity for the ligand, BanLec vs rBanLec [4]: no difference | Ka [5]: < 1000 M⁻¹ | Kd ([1]; read-out: Ka (converted)): 2610 nM | Kd [2]: 2830 nM | KD-values, rBanLec vs H84T [3]: similar | Fold Change (Ka, WT vs H84T) [3]: 1.09

GNA: Galanthus nivalis agglutinin, non-mitogenic negative control [reference compound]
stimulation index (mitogenic activity) [6]: less than ten

Griffithsin [reference compound]
stimulation index (mitogenic activity) [6]: less than ten

B1: D133G: BanLec mutant with a mutation in the first or second Greek Key sugar binding motif (protein)
chain: T1 sequence (O22321 1-141) with D133G
mitogenicity, in words [6]: abolished the mitogenic activity

B2: H84Q: BanLec mutant, H84 replaced by glutamine (protein)
chain: T1 sequence (O22321 1-141) with H84Q
mitogenicity, in words [6]: marked loss | anti-HIV activity, in words (HIV-1 pseudo-typed virus): marked loss

B3: H84Y: BanLec mutant, H84 replaced by tyrosine (protein)
chain: T1 sequence (O22321 1-141) with H84Y
mitogenicity, in words [6]: minimal effects | anti-HIV activity, in words (HIV-1 pseudo-typed virus): minimal effects

B4: H84W: BanLec mutant, H84 replaced by tryptophan (protein)
chain: T1 sequence (O22321 1-141) with H84W
mitogenicity, in words [6]: minimal effects | anti-HIV activity, in words (HIV-1 pseudo-typed virus): minimal effects

B5: H84G: BanLec mutant, H84 replaced by glycine (protein)
chain: T1 sequence (O22321 1-141) with H84G
mitogenicity, in words [6]: reasonably similar drop in mitogenicity as H84T | anti-HIV activity, in words (HIV-1 pseudo-typed virus): preserving some antiviral HIV activity

B6: H84E: BanLec mutant, H84 replaced by glutamic acid (protein)
chain: T1 sequence (O22321 1-141) with H84E
mitogenicity, in words [6]: marked loss | anti-HIV activity, in words (HIV-1 pseudo-typed virus): marked loss

B7: H84F: BanLec mutant, H84 replaced by phenylalanine (protein)
chain: T1 sequence (O22321 1-141) with H84F
mitogenicity, in words [6]: minimal effects | anti-HIV activity, in words (HIV-1 pseudo-typed virus): minimal effects

B8: H84K: BanLec mutant, H84 replaced by lysine (protein)
chain: T1 sequence (O22321 1-141) with H84K
mitogenicity, in words [6]: marked loss | anti-HIV activity, in words (HIV-1 pseudo-typed virus): marked loss

B9: H84D: BanLec mutant, H84 replaced by aspartic acid (protein)
chain: T1 sequence (O22321 1-141) with H84D
mitogenicity, in words [6]: marked loss | anti-HIV activity, in words (HIV-1 pseudo-typed virus): marked loss

B10: H84T: BanLec variant in which the histidine at position 84 is replaced by a threonine (protein)
chain: T1 sequence (O22321 1-141) with H84T
minimal agglutination concentration [7]: 487 µg/mL | cytokine/chemokine production [8]: markedly reduced production of cytokines | aggregation over time in solution [9]: tendency to aggregate over time | inhibition of replication of 1918 H1N1 virus [10]: very active and equally inhibited replication | stimulation of proliferation of lymphocytes ([6]; concentrations up to 1 μM): did not stimulate the proliferation of lymphocytes | inhibition of HIV replication (IC50), in words (HIV-1 pseudo-typed virus): low nanomolar range | anti-HIV inhibition relative to WT BanLec (HIV-1 pseudo-typed virus; multiple different isolates of HIV): equal to or within one log | inhibition of replication of H5N1 avian influenza virus [11]: very active and equally inhibited replication | mice with detectable levels of viral RNA in the plasma (HIV-1 JR-CSF): none of the mice | cell surface expression of activation marker CD69 [12]: very little upregulation

B11: H84L: BanLec mutant, H84 replaced by leucine (protein)
chain: T1 sequence (O22321 1-141) with H84L
mitogenicity, in words [6]: marked loss | anti-HIV activity, in words (HIV-1 pseudo-typed virus): marked loss
